Laboratory results reported in patent US20220380738.

B1: RecB^exo- (full-length nuclease deficient RecB DNA helicase variant, E1020A/D1080A/K1082A, N-terminal 6xHis tag) (protein)
chain: MSDVAETLDPLRLPLQGERLIEASAGTGKTFTIAALYLRLLLGLGGSAAFPRPLTVEELLVVTFTEAATAELRGRIRSNIHELRIACLRETTDNPLYERLLEEIDDKAQAAQWLLLAERQMDEAAVFTIHGFCQRMLNLNAFESGMLFEQQLIEDESLLRYQACADFWRRHCYPLPREIAQVVFETWKGPQALLRDINRYLQGEAPVIKAPPPDDETLASRHAQIVARIDTVKQQWRDAVGELDALIESSGIDRRKFNRSNQAKWIDKISAWAEEETNSYQLPESLEKFSQRFLEDRTKAGGETPRHPLFEAIDQLLAEPLSIRDLVITRALAEIRETVAREKRRRGELGFDDMLSRLDSALRSESGEVLAAAIRTRFPVAMIDEFQDTDPQQYRIFRRIWHHQPETALLLIGDPKQAIYAFRGADIFTYMKARSEVHAHYTLDTNWRSAPGMVNSVNKLFSQTDDAFMFREIPFIPVKSAGKNQALRFVFKGETQPAMKMWLMEGESCGVGDYQSTMAQVCAAQIRDWLQAGQRGEALLMNGDDARPVRASDISVLVRSRQEAAQVRDALTLLEIPSVYLSNRDSVFETLEAQEMLWLLQAVMTPERENTLRSALATSMMGLNALDIETLNNDEHAWDVVVEEFDGYRQIWRKRGVMPMLRALMSARNIAENLLATAGGERRLTDILHISELLQEAGTQLESEHALVRWLSQHILEPDSNASSQQMRLESDKHLVQIVTIHKSKGLEYPLVWLPFITNFRVQEQAFYHDRHSFEAVLDLNAAPESVDLAEAERLAEDLRLLYVALTRSVWHCSLGVAPLVRRRGDKKGDTDVHQSALGRLLQKGEPQDAAGLRTCIEALCDDDIAWQTAQTGDNQPWQVNDVSTAELNAKTLQRLPGDNWRVTSYSGLQQRGHGIAQDLMPRLDVDAAGVASVVEEPTLTPHQFPRGASPGTFLHSLFEDLDFTQPVDPNWVREKLELGGFESQWEPVLTEWITAVLQAPLNETGVSLSQLSARNKQVAMEFYLPISEPLIASQLDTLIRQFDPLSAGCPPLEFMQVRGMLKGFIDLVFRHEGRYYLLAYASNWLGEDSSAYTQQAMAAAMQAHRYDLQYQLYTLALHRYLRHRIADYDYEHHFGGVIYLFLRGVDKEHPQQGIYTTRPNAGLIALMDEMFAGMTLEEA

Key:
[1] = tested on: CbAgo (Clostridium butyricum); assay: cleavage_in_vitro; conditions: 5'-phosphate
[2] = molecular target: T1, RecC protein (wild type, N-terminal 6xHis tag), P07648
T1 chain: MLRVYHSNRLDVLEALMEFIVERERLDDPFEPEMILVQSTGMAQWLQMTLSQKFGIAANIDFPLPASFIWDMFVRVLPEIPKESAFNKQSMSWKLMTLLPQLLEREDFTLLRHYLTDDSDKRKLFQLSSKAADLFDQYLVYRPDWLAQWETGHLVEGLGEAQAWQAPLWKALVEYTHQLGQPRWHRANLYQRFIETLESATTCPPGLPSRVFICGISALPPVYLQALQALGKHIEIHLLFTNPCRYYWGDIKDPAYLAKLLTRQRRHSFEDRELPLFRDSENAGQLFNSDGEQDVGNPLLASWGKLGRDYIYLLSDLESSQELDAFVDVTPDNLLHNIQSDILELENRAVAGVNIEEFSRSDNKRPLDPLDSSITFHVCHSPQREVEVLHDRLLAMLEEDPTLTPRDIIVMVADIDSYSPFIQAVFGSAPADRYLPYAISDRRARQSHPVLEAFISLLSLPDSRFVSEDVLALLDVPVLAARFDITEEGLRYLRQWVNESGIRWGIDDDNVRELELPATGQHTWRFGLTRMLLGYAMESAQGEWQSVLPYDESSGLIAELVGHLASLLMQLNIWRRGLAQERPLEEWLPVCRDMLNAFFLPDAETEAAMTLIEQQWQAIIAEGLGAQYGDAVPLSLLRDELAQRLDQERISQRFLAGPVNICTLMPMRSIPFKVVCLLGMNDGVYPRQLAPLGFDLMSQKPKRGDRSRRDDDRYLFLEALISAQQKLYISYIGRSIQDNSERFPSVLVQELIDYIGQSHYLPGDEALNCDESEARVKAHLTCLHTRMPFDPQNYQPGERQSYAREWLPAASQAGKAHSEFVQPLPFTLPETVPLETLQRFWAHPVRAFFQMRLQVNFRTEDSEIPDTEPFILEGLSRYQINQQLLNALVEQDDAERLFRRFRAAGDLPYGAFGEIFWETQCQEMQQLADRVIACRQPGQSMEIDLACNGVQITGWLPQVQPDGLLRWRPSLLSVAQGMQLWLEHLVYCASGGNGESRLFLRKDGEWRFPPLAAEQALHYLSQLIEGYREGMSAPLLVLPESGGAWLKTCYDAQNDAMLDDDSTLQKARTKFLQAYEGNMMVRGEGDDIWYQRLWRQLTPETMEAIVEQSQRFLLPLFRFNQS

| Molecule | activity ([1]; 16 min, 37 C) | activity ([1]; 4 min, 37 C) | also measured |
| --- | --- | --- | --- |
| AGTGCTGAGGTTGACTTAGTT / GTTTGCTGATGAACTAAGTCAACCTCAGCATCAACCTTGCGAGTCATTTCTTT [T2-A1 ; ss-phiX174] | 35 % cleaved | – | – |
| CGCAAGGTTAGTGCTGAGGTT / GTTTGCTGATGAACTAAGTCAACCTCAGCATCAACCTTGCGAGTCATTTCTTT [T1-C1 ; ss-phiX174] | 50 % cleaved | – | – |
| GTGCTGAGGTTGACTTAGTTC / GTTTGCTGATGAACTAAGTCAACCTCAGCATCAACCTTGCGAGTCATTTCTTT [T2-G1 ; ss-phiX174] | – | 80 % cleaved | – |
| TCGCAAGGTTAGTGCTGAGGT / GTTTGCTGATGAACTAAGTCAACCTCAGCATCAACCTTGCGAGTCATTTCTTT [T1 ; ss-phiX174] | – | 74 % cleaved | – |
| TGACTGCGATCCTGCAT / GCTAGATAGATTGACAGATTACTCAAGCAGGCATGCAGGATCGCAGTCAGATTTATGTGTCATATAGTACGTGATTCAAG / CTTGAATCACGTACTATATGACACATAAATCTGACTGCGATCCTGCATGCCTGCTTGAGTAATCTGTCAATCTATCTAGC [B12 ; 80 bp blunt substrate] | – | – | activity ([1]; with RecdeltaB-C helicase, 15 min, 2-fold more with added CbuRecQ): 25 % cleaved |
| B1 | – | – | DNA unwinding activity (DpnI-based helicase assay, capillary electrophoresis) [2]: RecB^exo- alone is a weak DNA helicase, but its unwinding activity significantly increases after interaction with RecC protein |
